The target in this experiment is Myc-Sharp-1-bHLH (UniProt Q99PV5).
Chain of UniProt Q99PV5 (Q99PV5 44-99): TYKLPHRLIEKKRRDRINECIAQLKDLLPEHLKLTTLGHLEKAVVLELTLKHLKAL

“FLAG-G9a (full-length G9a) (from UniProt Q9Z148 1-1263) (enzyme)” returned an inhibition of MyoD activity (pMyog-Luc reporter) by Sharp-1-bHLH of 50%.

The values above are taken from article PMC3521685.
